# Measurements published in the supplement of paper PMC9170038.
# Legend:
# MS2 coat protein [1] = assay: apparent KD of MS2 coat protein, switch OFF state (with FMN for OFF switches, without FMN for ON switches); designed switch direction (-1 OFF switch, 1 ON switch): -1; higher = weaker reporter binding; details: FMN input: 0 or 200 uM; Eterna round: R93 (includes R88 designs)
# Method in brief: (§1)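 In 100 mM Tris-HCl pH 7.5 with 80 mM KCl and 4 mM MgCl2, and without or with constant ligand, SNAP-549-labelled MS2 coat protein was titrated in twofold steps from 0.7 or 1.5 nM to 3 µM. Per-step times went from 0.8–1.5 h down to 10–20 min. The RNA switches were transcribed on-chip from Illumina sequencing clusters, and apparent KD is the per-design median of normalised cluster binding-curve fits.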
# MS2 coat protein [2] = assay: apparent KD of MS2 coat protein, switch ON state; designed switch direction (-1 OFF switch, 1 ON switch): -1; higher = weaker reporter binding; details: FMN input: 0 or 200 uM; Eterna round: R93 (includes R88 designs)
# Method in brief: as §1
Sequence,apparent KD of MS2 coat protein (MS2 coat protein [1]),apparent KD of MS2 coat protein (MS2 coat protein [2])
AAGAAGUCAGGAUAUGCUGAUAGUAAAUUGAGUGAUGAGUAGCAGAAGGGACAUGAGGAUCACCCAUGUAAAGA [Opal 12],32.6 nM,45.4 nM
AAAGGGCGAGGAUAUACAUGAGGAUCACCCAUGUAAAAAACAUAAUAAAAGAAUUUAUGUAGAAGGCGCCCAAA [Ruby 60],14.4 nM,15.2 nM
UUUUGACAUGAGGAUCACCCAUGUCAGGAUAUAGUAGGACAAAAAAAAAAAAGUUCUACUAGAAGGGAUAUGAA [Design 16: Not So Super Stable 2],26.7 nM,17.8 nM
AAGAAGACAGGAUAUACAUGAGGAUCACCCAUGUAAAAGAAAGAAAGGGAAAAGAAAAGUAGAAGGGUCAAGAA [Khepermaatre-setpenptah Ramesses X],51.4 nM,37.6 nM
AAAAAGUGAGGAUAUUCGGAUAGGAAAACGAAAACCUAUCCGAAGAAGGCACAUGAGGAUCACCCAUGUGGAAA [67% Ecls-II - Early G + late G segment 2],27.6 nM,22.6 nM
GUGUACAGAGGAUAUACAUAAGCUAGGAAACUAGCAAGAUCACAUGAGGAUCACCCAUGUAGAAGGCUGUACAC [Ex2: 739],327 nM,270 nM
CUCAUGUCAGGAUAUGUAGCAUGAUACGAAAGUAUCAUGCUACAGAAGGGACAUGAGGAUCACCCAUGUAAAAA [Ex4: 942],33.9 nM,20.2 nM
GAUUAGGUAGGAUAUACAUGAGGAUCACCCAUGUAGGAAAAAAGCUACGAAAAAGAAUGUAGAAGGACCUAAAG [Mat - Exclusion 3 - Mayanna mod - D105],22.9 nM,20.5 nM
AAAGUGCAAGGAUAUAUAUGAAAAGUUACGAAAGUAACAAAACAUGAGGAUCACCCAUGUAGAAGGUGCACAAA [Seclusion (MS2 riboswitches - Exlclusion 2)],18.3 nM,24.6 nM
AACAAGUCAGGAUAUGUUAAAGGUUACGAAAGGGAUAAAGGGCAGAAGGGACAUGAGGAUCACCCAUGUAAUAA [And All that Jazx],38.2 nM,48 nM
AAGUUGGUAGGAUAUACGUGCAAUUGGUGUGUCCGGAAAAAACAUGAGGAUCACCCAUGUAGAAGGACCAAAAA [Quonmabi],36.3 nM,47.5 nM
AAGAAGUGAGGAUAUACAUGAAAGAAAGAAAAGAAAAGAAAACAUGAGGAUCACCCAUGUAGAAGGCACAAGAA [EteRNA is fun!],27.6 nM,28.7 nM
AAAAAGAGAGGAUAUGCAGGAGAAAAAAAAAAAAAAAAAAAACAUGAGGAUCACCCAUGUAGAAGGCUCAAAAA [Ecls2-II],15.7 nM,28.4 nM
AGGAAGUGAGGAUAUGCUGCUCGUCACUUGCGUGAUGAGUAGCAGAAGGCACAUGAGGAUCACCCAUGUAAAAA [Mat - Exaclusion 4 - Eli mod - D21],48.9 nM,46.7 nM
AAAAAGCUAGGAUAUACGAAAAAAAAGGGUAAAAAAUAAAAACAUGAGGAUCACCCAUGUAGAAGGAGCAAAAA [Mat - Exclusion 2 - Tesla mod - D36],77.9 nM,43.2 nM
AAGAAGUGAGGAUAUCGAAGACAGACGAAAAGUCUGUCAAACGAGAAGGCACAUGAGGAUCACCCAUGUAAGAA [What have we learned so far?],43.7 nM,34.8 nM
ACAAGAUCAGGAUAUACAUGAGGAUCACCCAUGUAAAUCAAAAAGGGACUUACUUAAUGUAGAAGGGAUCAUGU [EX3 279: Random 15],106 nM,28.6 nM
AAGAACUCAGGAUAUACAAAAUAAAAGAAAAGAAAGAAAGAACAUGAGGAUCACCCAUGUAGAAGGGAGAAGAA [Sobekkare Sobekneferu],32.4 nM,61.2 nM
